Measured values published in publication doi:10.1101/2022.12.10.519866 (bioRxiv, 2022).

How the values were obtained:
Experiment in all cases: cryo-EM structure
[1] = target: 3×FLAG-tagged full-length mouse BIRC6 (mouse) (UniProt O88738)
[2] = target: 3×FLAG-tagged full-length mouse BIRC6 (mouse, UniProt O88738 1-4882)
[3] = target: the molecule itself

Sequence of 3×FLAG-tagged full-length mouse BIRC6 (O88738 whole entry): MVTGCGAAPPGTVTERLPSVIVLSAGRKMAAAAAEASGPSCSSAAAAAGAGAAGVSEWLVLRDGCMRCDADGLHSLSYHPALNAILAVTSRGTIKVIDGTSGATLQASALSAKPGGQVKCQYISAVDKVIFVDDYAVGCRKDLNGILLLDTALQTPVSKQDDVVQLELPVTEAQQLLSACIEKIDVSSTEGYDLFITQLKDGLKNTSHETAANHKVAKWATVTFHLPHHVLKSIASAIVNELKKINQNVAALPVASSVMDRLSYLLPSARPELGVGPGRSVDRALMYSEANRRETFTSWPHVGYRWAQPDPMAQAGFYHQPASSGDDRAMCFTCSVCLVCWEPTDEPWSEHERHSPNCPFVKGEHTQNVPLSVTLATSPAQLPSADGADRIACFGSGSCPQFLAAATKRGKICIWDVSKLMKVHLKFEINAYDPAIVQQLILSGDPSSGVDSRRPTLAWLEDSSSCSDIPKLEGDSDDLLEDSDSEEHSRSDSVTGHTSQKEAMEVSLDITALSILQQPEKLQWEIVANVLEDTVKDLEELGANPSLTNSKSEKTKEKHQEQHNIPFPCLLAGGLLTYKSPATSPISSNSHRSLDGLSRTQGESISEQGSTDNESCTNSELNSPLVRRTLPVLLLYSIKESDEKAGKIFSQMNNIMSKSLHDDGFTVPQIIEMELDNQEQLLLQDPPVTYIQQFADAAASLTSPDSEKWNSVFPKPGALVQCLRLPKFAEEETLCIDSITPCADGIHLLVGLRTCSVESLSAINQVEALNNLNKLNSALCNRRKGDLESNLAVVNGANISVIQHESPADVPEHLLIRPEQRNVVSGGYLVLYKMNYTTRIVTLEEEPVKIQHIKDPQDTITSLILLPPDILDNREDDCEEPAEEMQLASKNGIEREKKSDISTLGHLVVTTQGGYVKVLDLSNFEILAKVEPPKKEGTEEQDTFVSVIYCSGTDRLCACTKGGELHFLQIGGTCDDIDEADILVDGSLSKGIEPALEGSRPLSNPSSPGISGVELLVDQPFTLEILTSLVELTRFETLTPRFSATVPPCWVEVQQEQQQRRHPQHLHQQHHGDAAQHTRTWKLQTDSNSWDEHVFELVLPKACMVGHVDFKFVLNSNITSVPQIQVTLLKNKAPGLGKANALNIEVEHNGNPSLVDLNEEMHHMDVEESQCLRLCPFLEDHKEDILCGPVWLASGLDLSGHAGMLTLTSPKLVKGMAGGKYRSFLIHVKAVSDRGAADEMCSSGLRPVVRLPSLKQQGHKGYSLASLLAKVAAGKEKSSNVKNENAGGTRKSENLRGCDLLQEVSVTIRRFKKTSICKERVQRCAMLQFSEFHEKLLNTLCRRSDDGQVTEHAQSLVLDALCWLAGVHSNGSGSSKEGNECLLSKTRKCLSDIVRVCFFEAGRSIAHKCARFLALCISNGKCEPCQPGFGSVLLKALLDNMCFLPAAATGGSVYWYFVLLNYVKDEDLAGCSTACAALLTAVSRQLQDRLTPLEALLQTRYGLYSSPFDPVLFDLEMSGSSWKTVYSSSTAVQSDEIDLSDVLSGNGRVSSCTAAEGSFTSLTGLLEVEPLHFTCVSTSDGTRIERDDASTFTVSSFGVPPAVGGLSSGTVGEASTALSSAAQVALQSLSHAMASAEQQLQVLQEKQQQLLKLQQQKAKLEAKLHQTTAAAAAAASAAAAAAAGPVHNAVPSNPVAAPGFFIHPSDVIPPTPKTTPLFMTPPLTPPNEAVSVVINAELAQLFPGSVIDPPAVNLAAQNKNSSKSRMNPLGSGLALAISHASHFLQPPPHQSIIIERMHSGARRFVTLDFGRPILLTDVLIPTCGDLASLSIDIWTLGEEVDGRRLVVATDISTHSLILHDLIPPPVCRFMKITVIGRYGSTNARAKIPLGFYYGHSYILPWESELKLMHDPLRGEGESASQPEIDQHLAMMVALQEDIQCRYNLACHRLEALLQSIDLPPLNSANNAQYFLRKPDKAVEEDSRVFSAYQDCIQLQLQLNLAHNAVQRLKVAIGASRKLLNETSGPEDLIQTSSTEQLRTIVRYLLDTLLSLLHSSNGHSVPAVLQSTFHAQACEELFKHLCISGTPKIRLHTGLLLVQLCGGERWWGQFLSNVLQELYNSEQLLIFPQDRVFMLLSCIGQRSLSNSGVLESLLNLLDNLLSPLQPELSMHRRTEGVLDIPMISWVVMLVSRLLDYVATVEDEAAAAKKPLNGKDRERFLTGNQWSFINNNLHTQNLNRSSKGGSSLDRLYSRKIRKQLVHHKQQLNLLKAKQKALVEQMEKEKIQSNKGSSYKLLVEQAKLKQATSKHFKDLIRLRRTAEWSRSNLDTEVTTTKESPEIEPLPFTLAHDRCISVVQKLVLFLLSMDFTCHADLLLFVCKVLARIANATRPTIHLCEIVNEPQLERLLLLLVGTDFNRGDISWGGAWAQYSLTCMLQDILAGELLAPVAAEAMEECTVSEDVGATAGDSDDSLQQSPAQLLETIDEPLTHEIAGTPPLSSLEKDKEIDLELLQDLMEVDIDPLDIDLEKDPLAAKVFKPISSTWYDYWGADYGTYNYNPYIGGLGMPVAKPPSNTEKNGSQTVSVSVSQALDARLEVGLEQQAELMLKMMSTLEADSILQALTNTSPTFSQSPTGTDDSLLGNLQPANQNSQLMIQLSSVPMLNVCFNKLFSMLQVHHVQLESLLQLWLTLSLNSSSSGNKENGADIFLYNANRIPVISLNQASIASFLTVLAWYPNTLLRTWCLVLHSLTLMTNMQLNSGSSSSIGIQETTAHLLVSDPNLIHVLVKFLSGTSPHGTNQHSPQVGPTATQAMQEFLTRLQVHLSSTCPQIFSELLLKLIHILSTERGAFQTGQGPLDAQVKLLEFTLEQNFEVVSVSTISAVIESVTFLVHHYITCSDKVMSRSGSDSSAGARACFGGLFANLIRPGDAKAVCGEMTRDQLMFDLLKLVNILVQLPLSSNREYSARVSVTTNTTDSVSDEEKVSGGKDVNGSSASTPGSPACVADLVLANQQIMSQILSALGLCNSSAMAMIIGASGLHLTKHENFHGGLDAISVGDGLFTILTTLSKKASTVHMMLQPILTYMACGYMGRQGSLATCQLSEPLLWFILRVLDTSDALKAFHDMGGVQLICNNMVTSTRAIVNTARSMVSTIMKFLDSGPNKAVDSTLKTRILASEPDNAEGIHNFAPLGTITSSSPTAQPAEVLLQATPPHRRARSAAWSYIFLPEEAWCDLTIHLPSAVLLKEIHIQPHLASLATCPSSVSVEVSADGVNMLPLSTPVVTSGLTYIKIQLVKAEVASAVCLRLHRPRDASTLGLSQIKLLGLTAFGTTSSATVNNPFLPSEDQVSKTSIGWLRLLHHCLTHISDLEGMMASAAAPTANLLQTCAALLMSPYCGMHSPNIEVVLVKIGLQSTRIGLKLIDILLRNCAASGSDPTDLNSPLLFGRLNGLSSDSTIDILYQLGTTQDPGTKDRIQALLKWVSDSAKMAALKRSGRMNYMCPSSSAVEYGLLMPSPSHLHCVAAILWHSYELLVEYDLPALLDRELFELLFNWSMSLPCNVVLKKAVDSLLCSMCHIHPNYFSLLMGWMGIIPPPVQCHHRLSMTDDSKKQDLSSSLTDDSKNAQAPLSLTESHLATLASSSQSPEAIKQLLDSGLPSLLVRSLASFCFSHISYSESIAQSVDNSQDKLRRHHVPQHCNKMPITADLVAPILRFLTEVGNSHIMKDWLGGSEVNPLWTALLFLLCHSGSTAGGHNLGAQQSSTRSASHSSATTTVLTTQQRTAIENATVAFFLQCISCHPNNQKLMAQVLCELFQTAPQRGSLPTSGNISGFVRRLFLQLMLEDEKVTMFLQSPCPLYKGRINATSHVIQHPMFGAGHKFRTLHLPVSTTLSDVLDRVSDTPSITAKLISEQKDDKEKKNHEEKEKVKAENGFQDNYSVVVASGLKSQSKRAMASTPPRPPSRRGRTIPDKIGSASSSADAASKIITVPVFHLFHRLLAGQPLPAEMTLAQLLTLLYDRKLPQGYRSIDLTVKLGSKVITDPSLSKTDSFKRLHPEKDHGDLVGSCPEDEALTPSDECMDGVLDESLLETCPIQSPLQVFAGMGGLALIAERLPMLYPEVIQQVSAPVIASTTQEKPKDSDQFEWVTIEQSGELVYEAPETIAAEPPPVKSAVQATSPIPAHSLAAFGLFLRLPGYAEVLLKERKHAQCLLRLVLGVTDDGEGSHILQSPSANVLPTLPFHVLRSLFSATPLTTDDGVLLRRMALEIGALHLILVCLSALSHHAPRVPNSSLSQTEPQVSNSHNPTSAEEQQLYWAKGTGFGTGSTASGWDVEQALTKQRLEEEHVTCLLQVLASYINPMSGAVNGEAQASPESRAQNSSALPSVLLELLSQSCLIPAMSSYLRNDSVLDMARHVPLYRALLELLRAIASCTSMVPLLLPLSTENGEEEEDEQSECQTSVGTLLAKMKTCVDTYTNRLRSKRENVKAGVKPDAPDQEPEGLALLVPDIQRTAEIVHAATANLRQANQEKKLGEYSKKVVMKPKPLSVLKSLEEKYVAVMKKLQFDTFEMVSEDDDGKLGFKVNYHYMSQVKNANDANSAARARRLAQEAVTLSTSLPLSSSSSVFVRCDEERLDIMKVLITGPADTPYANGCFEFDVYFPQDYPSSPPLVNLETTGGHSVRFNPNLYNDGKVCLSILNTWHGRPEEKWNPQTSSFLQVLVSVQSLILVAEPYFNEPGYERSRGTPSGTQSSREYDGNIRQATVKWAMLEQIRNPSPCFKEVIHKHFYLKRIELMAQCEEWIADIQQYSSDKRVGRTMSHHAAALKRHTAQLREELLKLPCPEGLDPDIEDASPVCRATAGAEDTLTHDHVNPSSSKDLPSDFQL

| Molecule | stoichiometry N [1] | binding result [2] | stoichiometry N [3] |
| --- | --- | --- | --- |
| 3×FLAG-tagged full-length mouse BIRC6, O88738 1-4882 | 2 | – | – |
| Smac/DIABLO, endogenous, co-purified with FLAG-BIRC6 from HEK293F cells (natural protein) AVPIAQKSEPHSLSSEALMRRAVSLVTDSTSTFLSQTTYALIEAITEYTKAVYTLTSLYRQYTSLLGKMNSEEEDEVWQVIIGARAEMTSKHQEYLKLETTWMTAVGLSEMAAEAAYQTGADQASITARNHIQLVKLQVEEVHQLSRKAETKLAEAQIEELRQKTQEEGEERAESEQEAYLRED | – | binds | 2 |
